# Results published in patent US20240124556A1, “KERATIN BD-3, PREPARATION METHOD THEREFOR AND PHARMACEUTICAL COMPOSITION AND USE THEREOF” (INSTITUTE OF MATERIA MEDICA, CHINESE ACADEMY OF MEDICAL …, priority 2019, published 2024).
# Tests used:
# [1] = system: yeast-induced fever model in SD rats; assay: Yeast-induced fever model of SD rats; format: in vivo; conditions: for Body temperature 2 hours after modeling / Body temperature 8 hours after modeling / Body temperature 4 hours after modeling / Body temperature 6 hours after modeling: 20% yeast s.c.; for Body temperature 2 hours after modeling: model group 37.5 ± 0.1; for Body temperature 8 hours after modeling: model group 37.6 ± 0.1; for Body temperature 4 hours after modeling / Body temperature 6 hours after modeling: model group 37.7 ± 0.1
# Method: • Animals: 230-260 grams of male SD rats; • Medicines: yeast (OXOID LP0021), aspirin (SIGMA A2093), protein BD-3; • Instruments: electronic balance (SARTORIUS BP121S type), electronic clinical thermometer (CITIZEN CT-513W type). • Experiment grouping: • Normal control group; • Model group: yeast fever model; • Positive control group: Aspirin 300 mg/kg group; • Protein BD-3, 10 mg/kg group, 50 mg/kg group. • Method:
# Preparation of experimental animals: After the experimental animals adapt to the experimental environment (temperature 22° C.±2° C., relative humidity 50%±2%) for 1 day. Pre-adaptation to measure rectal temperature at 8:00 and 15:00, rats were fasted and water was taken freely 12 h before experiment, and let the animal to empty its feces before measuring the rectal temperature. Apply petroleum jelly to the electronic thermometer probe before each temperature measurement. Insert the rat rectum 2 cm (can be marked at 2 cm to ensure that the depth of each insertion is consistent), and record the body temperature after the reading is stable.
# Subcutaneous injection of dry yeast to replicate rat fever model: The body temperature of the rats was measured before modeling. Qualified rats with a body temperature of 36.2-37.3° C. were selected and randomly divided into groups with 8 rats in each group. After oral administration of aspirin and different doses of protein BD-3, 20% yeast suspension (10 ml/kg) was injected subcutaneously immediately, and the normal control group was injected intraperitoneally with an equal volume of normal saline. The body temperatures of the rats were monitored after 2 hours for a total of 8 hours.
# According to the body temperature measured at each time point on the day of the experiment, calculate the mean, standard deviation and standard error of the body temperature of each group of rats. The data of each group was compared with TTEST, and P<0.05 was considered as a significant difference.
# [2] = system: PLO-induced epilepsy in mice; assay: Pilocarpine (PLO) induced convulsive epilepsy in mice; format: in vivo, ICR mice; conditions: for mortality rate / Grade IV seizure rate / Cases of Grade IV / Cases of deaths: PLO 225 mg/kg i.p.; for mortality rate / Cases of deaths: model group 0; for Grade IV seizure rate: model group 80%; for Cases of Grade IV / Cases of deaths: of 10 mice; for Cases of Grade IV: 30 min observation, model group 8; for Grade IV seizure incubation period / Grade II seizure incubation period / Grade III seizure incubation period: mean ± SEM; for Grade IV seizure incubation period: maximum recorded 1800 seconds, model group 894 ± 164; for Grade II seizure incubation period: model group 86 ± 5; for Grade III seizure incubation period: model group 142 ± 6
# Method: • Animals: male ICR mice; • Drugs: Pilocarpine HCl (PLO, pilocarpine, pilocarpine hydrochloride), Diazepam (diazepam tablets), protein BD-3. • Experiment grouping: • Model group: • Diazepam 2 mg/kg group; • Protein BD-3, 50 mg/kg group, 200 mg/kg group.
# The drug was administered once in the afternoon the day before modeling, PLO-225 mg/kg (modeling agent) was injected intraperitoneally 1 hour after the test drug was administered intragastrically on the day of modeling. And positive drug can be administered once 20 minutes before modeling. Observe for 30 minutes after PLO injection.
# Observation indicators: (1)Seizure situation: the time of seizures from Grade II to Grade IV; (2)the time to death.
# (§1) Seizure grade: Refer to Racine grading standard: Grade 0: No response; Grade I: manifested as twitching of facial muscles or the corners of the mouth; Grade II: can nod; Grade III: twitching of one limb; Grade IV: rigidity or body twitching; Grade V: generalized epilepsy (generalized tonic seizures).
# Count the number of Grade IV seizures and deaths in each group of mice in the experiment; Grade II, III and IV incubation period. […] Chi-square test was used for statistics of the number of cases. The mean value and standard error of the incubation period were calculated, and TTEST was used to compare the model group with other groups. P<0.05 was considered as a significant difference.
# [3] = system: PTZ-induced epilepsy in mice; assay: Pentylenetetrazole (PTZ)-induced epilepsy in mice; format: in vivo, ICR mice; conditions: for mortality rate / Grade IV seizure rate / Cases of Grade IV / Cases of deaths: PTZ 65 mg/kg i.p.; for mortality rate: model group 10%; for Grade IV seizure rate: model group 90%; for Cases of Grade IV / Cases of deaths: of 10 mice; for Cases of Grade IV: 15 min observation, model group 9; for Cases of deaths: model group 1; for Grade IV seizure incubation period / Grade III seizure incubation period: mean ± SEM; for Grade IV seizure incubation period: maximum recorded 900 seconds, model group 185 ± 84; for Grade III seizure incubation period: model group 63 ± 6
# Method: • Animals: male ICR mice; • Medicines: Pentylenetetrazol (PTZ), Retigabine, Protein BD-3. • Experiment grouping: • Model group; • Retigabine 60 mg/kg group; • Protein BD-3, 50 mg/kg group, 200 mg/kg group;
# The drug was administered once in the afternoon the day before modeling, On the day of modeling, PTZ-65 mg/kg (modeling agent) was injected intraperitoneal 1 hour after the test drug was administered intragastrically, and the positive drug can be administered once half an hour before modeling. Continue to observe for 15 minutes after injection of PTZ.
# Observation index: (1)Seizure situation: the time of seizures from Grade III to Grade VI; (2)Death situation
# as §1
# Count the cases of seizures and deaths in each group of mice in the experiment; Grade III and IV incubation period. The incubation period of mice that have not attacked to Grade IV is recorded as the maximum of 900 seconds. Chi-square test was used for statistics of the number of cases. Calculate the mean and standard error of the incubation period. Use TTEST to compare the model group with other groups, and P<0.05 is considered as a significant difference.
# [4] = summary statement, no dose given
molecule,measurement,setting,value
"BD-3: recombinant keratin, amino acid sequence SEQ ID NO:1, expressed in E. coli, band around 43 kD; tested material prepared in Example 4 (protein, listed as Bos taurus) MSYSCCLPNLSFRSSCSSRPCVPSSCCGTTLPGACNIPANVGSCNWFCEGSFNGSEKETMQFLNDRLASYLEKVRQLERDNAELESRILERSQQKILANKAENARLVVQIDNAKLAADDFRTKYQTELGLRQLVESDINGLRRILDELTLCKSDLEAQVESLKEELICLKQNHEQEVNTLRSQLGDRLNVEVDAAPTVDLNRVLNETRAQYEALVETNRRDVEEWYIRQTEELNKQVVSSSEQLQSYQAEIIELRRTVNALEVELQAQHNLRDSLENTLTETEARYSCQLAQVQGLIGNVESQLAEIRSDLERQNQEYQVLLDVRARLECEINTYRGLLDSEDCKLPCNPCATTNASSVGSCVTNPCTPCGPRSRFGPCNTFGC",Body temperature 2 hours after modeling,[1]; BD-3 10 mg/kg oral,37.0 ± 0.2 °C
same,Body temperature 8 hours after modeling,[1]; BD-3 10 mg/kg oral,37.4 ± 0.1 °C
same,Body temperature 4 hours after modeling,[1]; BD-3 10 mg/kg oral,37.3 ± 0.1 °C
same,Body temperature 6 hours after modeling,[1]; BD-3 10 mg/kg oral,37.4 ± 0.1 °C
same,Body temperature 2 hours after modeling,[1]; BD-3 50 mg/kg oral,36.9 ± 0.1 °C
same,Body temperature 8 hours after modeling,[1]; BD-3 50 mg/kg oral,37.3 ± 0.1 °C
same,Body temperature 4 hours after modeling,[1]; BD-3 50 mg/kg oral,37.2 ± 0.1 °C
same,Body temperature 6 hours after modeling,[1]; BD-3 50 mg/kg oral,37.4 ± 0.1 °C
same,Effect on body temperature of model rats (in words),"[1]; different doses of BD-3 (10 mg/kg, 50 mg/kg), at 2 hours and 4 hours after modeling, P<0.05 vs model group",can significantly inhibit the increase in body temperature of model rats
same,Summary: antipyretic effect in yeast fever model (in words),[1]; [4],can significantly inhibit the increase in body temperature at 2 hours and 4 hours after modeling
same,Epilepsy Grade IV incubation period vs model group (in words),[2]; BD-3 50 mg/kg,statistically different from the model group
same,mortality rate,[2]; BD-3 50 mg/kg intragastric,0
same,Grade IV seizure rate,[2]; BD-3 50 mg/kg intragastric,30%
same,Cases of Grade IV,[2]; BD-3 50 mg/kg intragastric,3
same,Cases of deaths,[2]; BD-3 50 mg/kg intragastric,0
same,Grade IV seizure incubation period,[2]; BD-3 50 mg/kg,1573 ± 138 s
same,Grade II seizure incubation period,[2]; BD-3 50 mg/kg,91 ± 6 s
same,Grade III seizure incubation period,[2]; BD-3 50 mg/kg,155 ± 12 s
same,Epilepsy Grade III incubation period vs model group (in words),[2]; BD-3 200 mg/kg,statistically different from the model group
same,mortality rate,[2]; BD-3 200 mg/kg intragastric,0
same,Grade IV seizure rate,[2]; BD-3 200 mg/kg intragastric,60%
same,Cases of Grade IV,[2]; BD-3 200 mg/kg intragastric,6
same,Cases of deaths,[2]; BD-3 200 mg/kg intragastric,0
same,Grade IV seizure incubation period,[2]; BD-3 200 mg/kg,1181 ± 203 s
same,Grade II seizure incubation period,[2]; BD-3 200 mg/kg,99 ± 5 s
same,Grade III seizure incubation period,[2]; BD-3 200 mg/kg,183 ± 12 s
same,"Summary: effect on epilepsy incubation period, PLO model (in words)",[2]; [4],can significantly prolong the incubation period of class III and class IV epilepsy in mice
same,mortality rate,[3]; BD-3 50 mg/kg intragastric,10%
same,Grade IV seizure rate,[3]; BD-3 50 mg/kg intragastric,100%
same,Cases of Grade IV,[3]; BD-3 50 mg/kg intragastric,10
same,Cases of deaths,[3]; BD-3 50 mg/kg intragastric,1
same,Grade IV seizure incubation period,[3]; BD-3 50 mg/kg,162 ± 58 s
same,Grade III seizure incubation period,[3]; BD-3 50 mg/kg,75 ± 6 s
same,Epilepsy Grade III incubation period vs model group (in words),[3]; BD-3 200 mg/kg,"has a tendency to extend the incubation period, but there is no statistical difference compared with the model group"
same,mortality rate,[3]; BD-3 200 mg/kg intragastric,0%
same,Grade IV seizure rate,[3]; BD-3 200 mg/kg intragastric,70%
same,Cases of Grade IV,[3]; BD-3 200 mg/kg intragastric,7
same,Cases of deaths,[3]; BD-3 200 mg/kg intragastric,0
same,Grade IV seizure incubation period,[3]; BD-3 200 mg/kg,327 ± 125 s
same,Grade III seizure incubation period,[3]; BD-3 200 mg/kg,62 ± 5 s
